Laboratory results as given in article PMC10786891, “Massively parallel profiling of RNA-targeting CRISPR-Cas13d”.
Where a chain is given by its changes, count along the chain named. Names may count otherwise.

B1: target 1 del11,del14 (mixed)
RNA 1: CACCCGUGCAAAAAUGCAGGGGUCUAAAACUGAGCGGAUAACCUCUCUAUGG
RNA 2: GGGAAUGGAUCCACAUCUACGAAUUCGUACCAUAGAGGGUAUCCGCUCACCGAGAUCGGAAGAGCACACGU
B2: target 1 insA 3' of 21,insA 3' of 21 (mixed)
RNA 1: B1 RNA 1
RNA 2: GGGAAUGGAUCCACAUCUACGAAUUCGUACCAAAUAGAGAGGUUAUCCGCUCACCGAGAUCGGAAGAGCACACGU
B3: target 1 A14G,G15A (mixed)
RNA 1: B1 RNA 1
RNA 2: GGGAAUGGAUCCACAUCUACGAAUUCGUACCAUAGAAGGGUUAUCCGCUCACCGAGAUCGGAAGAGCACACGU
B4: target 1 MT 5'PFS UAG 3'PFS UUC (mixed)
RNA 1: B1 RNA 1
RNA 2: B3 RNA 2 with G27U, U28A, A29G, A37G, G38A, C52U, C53U, G54C
B5: target 1 insC 3' of 22,insG 3' of 4 (mixed)
RNA 1: B1 RNA 1
RNA 2: GGGAAUGGAUCCACAUCUACGAAUUCGUACCCAUAGAGAGGUUAUCCGCGUCACCGAGAUCGGAAGAGCACACGU
B6: target 1 C6A,G17U (mixed)
RNA 1: B1 RNA 1
RNA 2: B3 RNA 2 with G35U, A37G, G38A, C46A
B7: target 1 MT 5'PFS GUG 3'PFS GCU (mixed)
RNA 1: B1 RNA 1
RNA 2: B3 RNA 2 with A29G, A37G, G38A, C52G, G54U
B8: target 1 insA 3' of 7,insC 3' of 3 (mixed)
RNA 1: B1 RNA 1
RNA 2: GGGAAUGGAUCCACAUCUACGAAUUCGUACCAUAGAGAGGUUAUCACGCUCCACCGAGAUCGGAAGAGCACACGU
B9: target 1 insC 3' of 16,insC 3' of 8 (mixed)
RNA 1: B1 RNA 1
RNA 2: B5 RNA 2 with C32A, A33U, U34A, A35G, G36A, A37C, G48C, C49G, G50C
B10: target 1 U8G,G12U (mixed)
RNA 1: B1 RNA 1
RNA 2: B3 RNA 2 with A37G, G38A, G40U, U44G
B11: target 1 MT 5'PFS UAG 3'PFS UUU (mixed)
RNA 1: B1 RNA 1
RNA 2: B3 RNA 2 with G27U, U28A, A29G, A37G, G38A, C52U, C53U, G54U
B12: target 1 insU 3' of 14,insA 3' of 13 (mixed)
RNA 1: B1 RNA 1
RNA 2: B2 RNA 2 with A33U, U35G, G39U, A40G, G41A
B13: target 1 A16C,A20U (mixed)
RNA 1: B1 RNA 1
RNA 2: B3 RNA 2 with A32U, A36C, A37G, G38A
B14: target 1 MT 5'PFS UGC 3'PFS AAA (mixed)
RNA 1: B1 RNA 1
RNA 2: B3 RNA 2 with G27U, U28G, A29C, A37G, G38A, C52A, C53A, G54A
B15: target 1 MT 5'PFS UAG 3'PFS UUA (mixed)
RNA 1: B1 RNA 1
RNA 2: B3 RNA 2 with G27U, U28A, A29G, A37G, G38A, C52U, C53U, G54A
B16: target 1 insA 3' of 6,insA 3' of 5 (mixed)
RNA 1: B1 RNA 1
RNA 2: B8 RNA 2 with A46C, C47A, C49A, U50C, C51U
B17: target 1 insA 3' of 8,insU 3' of 1 (mixed)
RNA 1: B1 RNA 1
RNA 2: B8 RNA 2 with C45A, A46C, C52A, A53U
B18: target 1 insA 3' of 17,insC 3' of 11 (mixed)
RNA 1: B1 RNA 1
RNA 2: B2 RNA 2 with A33U, U35G, G37A, A38G, G39A, A40G, G42U, U43C
B19: target 1 insA 3' of 17,insA 3' of 3 (mixed)
RNA 1: B1 RNA 1
RNA 2: B5 RNA 2 with C32A, A33U, U34A, A35G, G36A, G50U, U51A
B20: target 1 insA 3' of 5,insC 3' of 5 (mixed)
RNA 1: B1 RNA 1
RNA 2: B8 RNA 2 with A46C, C47G, G48A, U50C, C51U
B21: target 1 del8,del16 (mixed)
RNA 1: B1 RNA 1
RNA 2: B1 RNA 2 with A36G, G37A, A41U, U42A
B22: target 1 U3G,U8G (mixed)
RNA 1: B1 RNA 1
RNA 2: B3 RNA 2 with A37G, G38A, U44G, U49G
B23: target 1 insA 3' of 5,insA 3' of 4 (mixed)
RNA 1: B1 RNA 1
RNA 2: B8 RNA 2 with A46C, C47G, G48A, U50A, C51U
B24: target 1 insA 3' of 8,insA 3' of 2 (mixed)
RNA 1: B1 RNA 1
RNA 2: B8 RNA 2 with C45A, A46C, C52A
B25: target 1 insC 3' of 13,insG 3' of 4 (mixed)
RNA 1: B1 RNA 1
RNA 2: B8 RNA 2 with G40C, U41G, A43U, U44A, C45U, A46C, U50G, C51U
B26: target 1 MT 5'PFS AAG 3'PFS UCU (mixed)
RNA 1: B1 RNA 1
RNA 2: B3 RNA 2 with G27A, U28A, A29G, A37G, G38A, C52U, G54U
B27: target 1 MT 5'PFS UGC 3'PFS AAC (mixed)
RNA 1: B1 RNA 1
RNA 2: B3 RNA 2 with G27U, U28G, A29C, A37G, G38A, C52A, C53A, G54C
B28: target 1 A16G (mixed)
RNA 1: B1 RNA 1
RNA 2: B3 RNA 2 with A36G, A37G, G38A
B29: target 1 insU 3' of 21,insA 3' of 6 (mixed)
RNA 1: B1 RNA 1
RNA 2: B5 RNA 2 with C32U, G48A, C49G, G50C
B30: target 1 MT 5'PFS GAA 3'PFS CAU (mixed)
RNA 1: B1 RNA 1
RNA 2: B3 RNA 2 with U28A, A37G, G38A, C53A, G54U
B31: target 1 C6U,A18C (mixed)
RNA 1: B1 RNA 1
RNA 2: B3 RNA 2 with A34C, A37G, G38A, C46U
B32: target 1 insC 3' of 17,insA 3' of 5 (mixed)
RNA 1: B1 RNA 1
RNA 2: B5 RNA 2 with C32A, A33U, U34A, A35G, G36C, C49A, G50C
B33: target 1 insA 3' of 3,insG 3' of 3 (mixed)
RNA 1: B1 RNA 1
RNA 2: B8 RNA 2 with A46C, C47G, G48C, C49U, U50A, C51G
B34: target 1 MT 5'PFS UAG 3'PFS UUG (mixed)
RNA 1: B1 RNA 1
RNA 2: B3 RNA 2 with G27U, U28A, A29G, A37G, G38A, C52U, C53U
B35: target 1 MT 5'PFS CUG 3'PFS CAC (mixed)
RNA 1: B1 RNA 1
RNA 2: B3 RNA 2 with G27C, A29G, A37G, G38A, C53A, G54C

Target: T1, EsCas13d, nuclease-dead (Eubacterium siraeum, UniProt B0MS50, R295A;H300A;R849A;H854A)
T1 sequence: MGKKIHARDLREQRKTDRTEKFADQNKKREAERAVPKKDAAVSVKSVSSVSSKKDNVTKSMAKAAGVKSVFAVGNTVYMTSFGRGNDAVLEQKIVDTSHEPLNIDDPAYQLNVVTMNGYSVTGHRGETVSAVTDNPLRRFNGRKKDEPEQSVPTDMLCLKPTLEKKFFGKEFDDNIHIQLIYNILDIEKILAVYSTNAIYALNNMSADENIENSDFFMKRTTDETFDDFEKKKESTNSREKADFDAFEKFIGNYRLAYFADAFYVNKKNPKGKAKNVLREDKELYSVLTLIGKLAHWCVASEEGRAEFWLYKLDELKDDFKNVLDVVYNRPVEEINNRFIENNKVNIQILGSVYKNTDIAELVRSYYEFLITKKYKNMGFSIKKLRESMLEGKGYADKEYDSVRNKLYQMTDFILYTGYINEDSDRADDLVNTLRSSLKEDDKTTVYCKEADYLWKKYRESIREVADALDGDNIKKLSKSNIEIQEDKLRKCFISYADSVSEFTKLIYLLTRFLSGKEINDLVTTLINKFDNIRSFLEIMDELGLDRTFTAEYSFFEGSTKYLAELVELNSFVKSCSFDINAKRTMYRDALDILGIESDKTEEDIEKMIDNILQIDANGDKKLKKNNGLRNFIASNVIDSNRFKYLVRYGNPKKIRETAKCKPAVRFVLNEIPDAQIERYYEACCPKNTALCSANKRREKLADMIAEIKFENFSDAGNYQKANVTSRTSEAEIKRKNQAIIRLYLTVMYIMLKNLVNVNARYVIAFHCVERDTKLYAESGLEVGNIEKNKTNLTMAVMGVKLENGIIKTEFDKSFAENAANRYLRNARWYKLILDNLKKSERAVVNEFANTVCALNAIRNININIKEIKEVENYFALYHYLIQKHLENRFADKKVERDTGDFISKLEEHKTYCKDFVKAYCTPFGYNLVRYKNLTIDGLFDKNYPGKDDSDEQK
Assay: crRNA (strand 1, pre-loaded); Mg2+; 40 mM Tris-HCl pH 7.5, 150 mM NaCl, 6 mM MgCl2, 1 mM DTT, 0.1% Tween-20, 0.2 mg/ml BSA; 25 C; 10 min per concentration, then washed
Conditions: tags: His6-TwinStrep-SUMO cleaved; N-terminal SNAP kept (SNAP-Surface 488); label: 3' end held by stalled T7 RNA polymerase

| Binder | Kd |
| --- | --- |
| B1 | 32.4 ± 1.8 nM |
| B2 | 15.4 ± 0.8 nM |
| B3 | 14.8 ± 1.5 nM |
| B4 | 18.9 ± 3.85 nM |
| B5 | 12.8 ± 1.1 nM |
| B6 | 18.7 ± 1.2 nM |
| B7 | 7 ± 0.7 nM |
| B8 | 6.32 ± 0.25 nM |
| B9 | ~90 nM |
| B10 | 11.8 ± 1.3 nM |
| B11 | 23.4 ± 3.05 nM |
| B12 | 9.2 ± 0.8 nM |
| B13 | 85 ± 29 nM |
| B14 | ~50 nM |
| B15 | 18.4 ± 3.7 nM |
| B16 | 53 ± 6 nM |
| B17 | 12.9 ± 0.6 nM |
| B18 | 51 ± 10 nM |

| Binder | Kd |
| --- | --- |
| B19 | 11.7 ± 0.4 nM |
| B20 | 11.3 ± 1 nM |
| B21 | 71 ± 18 nM |
| B22 | 10.8 ± 0.4 nM |
| B23 | 9.8 ± 1.1 nM |
| B24 | 17.9 ± 0.6 nM |
| B25 | 5.33 ± 0.22 nM |
| B26 | 12.1 ± 3.65 nM |
| B27 | ~40 nM |
| B28 | 29.4 ± 1.4 nM |
| B29 | 28.2 ± 2.3 nM |
| B30 | ~95 nM |
| B31 | 58 ± 7 nM |
| B32 | 23 ± 4 nM |
| B33 | 6.2 ± 0.5 nM |
| B34 | 12.9 ± 1.1 nM |
| B35 | 5.25 ± 1.6 nM |
